In US20230414660A1 (LUDWIG INSTITUTE FOR CANCER RESEARCH, published 2023):

Biological target: T1, human PDL1 protein (human, UniProt Q9NZQ7 19-238, limits assumed)
T1 construct: also called plate-captured PD-L1
Test: titration ELISA, soluble His-tagged PD1 decoy on plate-coated human PD-L1, anti-His detection

T1 sequence (Q9NZQ7 19-238 limits assumed): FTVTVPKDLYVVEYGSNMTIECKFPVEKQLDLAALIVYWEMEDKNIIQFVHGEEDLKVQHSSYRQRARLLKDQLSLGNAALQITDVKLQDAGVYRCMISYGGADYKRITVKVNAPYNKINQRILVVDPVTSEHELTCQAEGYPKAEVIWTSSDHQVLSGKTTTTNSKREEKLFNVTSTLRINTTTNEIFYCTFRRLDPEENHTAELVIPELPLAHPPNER

Binder	Affinity to PD-L1 (relative to WT PD1)
WT PD1 (receptor, Soluble monomeric protein made in bacteria with a C-terminal 6xHis tag and detected with anti-His antibody; also called WT PD1 decoy; WT PD-1 decoy) MASDSPDRPWNPPTFSPALLVVTEGDNATFTCSFSNTSESFVLNWYRMSPSNQTDKLAAFPEDRSQPGQDARFRVTQLPNGRDFHMSVVRARRNDSGTYLCGAISLAPKAQIKESLRAELRVTERRALEHHHHHH	1 fold relative to WT PD1
5XD (receptor, PD1 decoy variant, bacterial, C-terminal 6xHis) MASDSPDRPWNPPTFSPALLVVTEGDNATFTCSFSNTSESFVLNWYRESPSNQVDRLAAFPEDRSQPGQDARFRVTQLPNGRDFHMSVVRARRNDSGTYFCGAISLAPKAKIKESLRAELRVTERRALEHHHHHH	1.1 fold relative to WT PD1
6XB (receptor, PD1 decoy variant, bacterial, C-terminal 6xHis) MASDSPDRPWNPPTFSPALLVVTEGDNATFTCSFSNTSESFVLNWYRESPSNQDDRLAAFPEDRSQPGQDARFRVTQLPNGRDFHMSVVRARRNDSGTYICGAISLAPKWKIKESLRAELRVTERRALEHHHHHH	1.3 fold relative to WT PD1
6XC (receptor, PD1 decoy variant, bacterial, C-terminal 6xHis) MASDSPDRPWNPPTFSPALLVVTEGDNATFTCSFSNTSESFVLNWYRESPSNQVDRLAAFPEDRSQPGQDARFRVTQLPNGRDFHMSVVRARRNDSGTYICGAISLAPKWKIKESLRAELRVTERRALEHHHHHH	1.1 fold relative to WT PD1
A132W (receptor, PD1 decoy variant, bacterial, C-terminal 6xHis) MASDSPDRPWNPPTFSPALLVVTEGDNATFTCSFSNTSESFVLNWYRMSPSNQTDKLAAFPEDRSQPGQDARFRVTQLPNGRDFHMSVVRARRNDSGTYLCGAISLAPKWQIKESLRAELRVTERRALEHHHHHH	3 fold relative to WT PD1
B2 4XB (receptor, PD1 decoy variant, bacterial, C-terminal 6xHis) MASDSPDRPWNPPTFSPALLVVTEGDNATFTCSFSNTSESFVLNWYRDSPSNQDDRLAAFPEDRSQPGQDARFRVTQLPNGRDFHMSVVRARRNDSGTYLCGAISLAPKAKIKESLRAELRVTERRALEHHHHHH	7.3 fold relative to WT PD1
Core A (receptor, PD1 decoy variant, bacterial, C-terminal 6xHis) MASDSPDRPWNPPTFSPALLVVTEGDNATFTCSFSNTSESFVLNWYRESPSNQDDRLAAFPEDRSQPGQDARFRVTQLPNGRDFHMSVVRARRNDSGTYECGAISLAPKAKIKESLRAELRVTERRALEHHHHHH	7.1 fold relative to WT PD1
Core L (receptor, PD1 decoy variant, bacterial, C-terminal 6xHis) MASDSPDRPWNPPTFSPALLVVTEGDNATFTCSFSNTSESFVLNWYRESPSNQDDRLAAFPEDRSQPGQDARFRVTQLPNGRDFHMSVVRARRNDSGTYECGAISLAPKLKIKESLRAELRVTERRALEHHHHHH	1.7 fold relative to WT PD1
Core_W (receptor, PD1 decoy variant, bacterial, C-terminal 6xHis) MASDSPDRPWNPPTFSPALLVVTEGDNATFTCSFSNTSESFVLNWYRESPSNQDDRLAAFPEDRSQPGQDARFRVTQLPNGRDFHMSVVRARRNDSGTYECGAISLAPKWKIKESLRAELRVTERRALEHHHHHH	1020 fold relative to WT PD1
K_78R (receptor, PD1 decoy variant, bacterial, C-terminal 6xHis) MASDSPDRPWNPPTFSPALLVVTEGDNATFTCSFSNTSESFVLNWYRMSPSNQTDRLAAFPEDRSQPGQDARFRVTQLPNGRDFHMSVVRARRNDSGTYLCGAISLAPKAQIKESLRAELRVTERRALEHHHHHH	1.4 fold relative to WT PD1
L122E (receptor, PD1 decoy variant, bacterial, C-terminal 6xHis) MASDSPDRPWNPPTFSPALLVVTEGDNATFTCSFSNTSESFVLNWYRMSPSNQTDKLAAFPEDRSQPGQDARFRVTQLPNGRDFHMSVVRARRNDSGTYECGAISLAPKAQIKESLRAELRVTERRALEHHHHHH	3 fold relative to WT PD1
M70E (receptor, PD1 decoy variant, bacterial, C-terminal 6xHis) MASDSPDRPWNPPTFSPALLVVTEGDNATFTCSFSNTSESFVLNWYRESPSNQTDKLAAFPEDRSQPGQDARFRVTQLPNGRDFHMSVVRARRNDSGTYLCGAISLAPKAQIKESLRAELRVTERRALEHHHHHH	5.2 fold relative to WT PD1
PD1_4XMUT (with 6xHis) (receptor, Soluble monomeric, bacterial production) MASDSPDRPWNPPTFSPALLVVTEGDNATFTCSFSNTSESFVLNWYRESPSNQDDRLAAFPEDRSQPGQDARFRVTQLPNGRDFHMSVVRARRNDSGTYFCGAISLAPKAKIKESLRAELRVTERRALEHHHHHH	5 fold relative to WT PD1
PD1_4XMUT_M70 (with 6xHis) (receptor) MASDSPDRPWNPPTFSPALLVVTEGDNATFTCSFSNTSESFVLNWYRMSPSNQDDRLAAFPEDRSQPGQDARFRVTQLPNGRDFHMSVVRARRNDSGTYFCGAISLAPKAKIKESLRAELRVTERRALEHHHHHH	10 fold relative to WT PD1
PD1_6XD (with 6xHis) (receptor, Soluble monomeric, bacterial production) MASDSPDRPWNPPTFSPALLVVTEGDNATFTCSFSNTSESFVLNWYRESPSNQVDRLAAFPEDRSQPGQDARFRVTQLPNGRDFHMSVVRARRNDSGTYFCGAISLAPKWKIKESLRAELRVTERRALEHHHHHH	7.2 fold relative to WT PD1
PD1_6XDM (with 6xHis) (receptor, Soluble monomeric, bacterial production) MASDSPDRPWNPPTFSPALLVVTEGDNATFTCSFSNTSESFVLNWYRMSPSNQVDRLAAFPEDRSQPGQDARFRVTQLPNGRDFHMSVVRARRNDSGTYFCGAISLAPKWKIKESLRAELRVTERRALEHHHHHH	7.5 fold relative to WT PD1
Q133K (receptor, PD1 decoy variant, bacterial, C-terminal 6xHis) MASDSPDRPWNPPTFSPALLVVTEGDNATFTCSFSNTSESFVLNWYRMSPSNQTDKLAAFPEDRSQPGQDARFRVTQLPNGRDFHMSVVRARRNDSGTYLCGAISLAPKAKIKESLRAELRVTERRALEHHHHHH	3 fold relative to WT PD1
T_76D (receptor, PD1 decoy variant, bacterial, C-terminal 6xHis) MASDSPDRPWNPPTFSPALLVVTEGDNATFTCSFSNTSESFVLNWYRMSPSNQDDKLAAFPEDRSQPGQDARFRVTQLPNGRDFHMSVVRARRNDSGTYLCGAISLAPKAQIKESLRAELRVTERRALEHHHHHH	8.3 fold relative to WT PD1
X1 4XMut (receptor, PD1 decoy variant, bacterial, C-terminal 6xHis) MASDSPDRPWNPPTFSPALLVVTEGDNATFTCSFSNTSESFVLNWYRESPSNQDDRLAAFPEDRSQPGQDARFRVTQLPNGRDFHMSVVRARRNDSGTYLCGAISLAPKAKIKESLRAELRVTERRALEHHHHHH	5.6 fold relative to WT PD1
